Results from the supplement of paper PMC7877785.
± gives the uncertainty stated by the source.

Assay: self-splicing fitness, log relative to wild type (ln ratio); higher = more splicing; Tetrahymena group I intron in knt gene, E. coli kanamycin selection, DiMSum; sequences stand for … in CUCUCU…GGAGGGAAAAGUUAUCAGGCAUGCACCUGGUAGCUAGUCUUUAAACCAAUAGAUUGCAUCGGUUUAAAAGGCAAGACCGUCAAAUUGCGGGAAAGGGGUCAACAGCCGUUCAGUACCAAGUCUCAGGGGAAACUUUGAGAUGGCCUUGCAAAGGGUAUGGUAAUAAGCUGACGGACAUGGUCCUAACCACGCAGCCAAGUCCUAAGUCAACAGAUCUUCUGUUGAUAUGGAUGCAGUUCACAGACUAAAUGUCGGUCGGGGAAGAUGUAUUCUUCUCAUAAGAUAUAGUCGGACCUCUCCUUAAUGGGAGCUAGCGGAUGAAGUGAUGCAACACUGGAGCCGCUGGGAACUAAUUUGUAUGCGAAAGUAUAUUGAUUAGUUUUGGAGUACUCGUGGUCG
Method in brief: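 Library with all eight P1ex-region intron nucleotides randomised, intron inside the knt kanamycin-resistance gene on pET-22b(+), in E. coli BL21(DE3). Cells grew overnight at 37°C or 30°C on LB agar with or without 25 μg/mL kanamycin (plus 100 μg/mL carbenicillin, 50 μM IPTG, 0.2% rhamnose), in six replicate transformations. Pooled colonies were amplicon-sequenced on Illumina HiSeq 2500. DiMSum fitness is the error-weighted combination of wild-type-normalised replicate fold changes, kanamycin versus none.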

| Sequence | self-splicing fitness (ln) (30 °C) | self-splicing fitness (ln) (37 °C) |
| --- | --- | --- |
| CCCCAGCAAUAUUACGAACU | -5.09 ± 0.45 | -2.29 ± 0.2 |
| CCCCAGCAAUAUUACGAAGC | -4.34 ± 0.31 | -3.28 ± 0.3 |
| CCCCAGCAAUAUUACGAAUA | – | -1.41 ± 0.21 |
| CCCCAGCAAUAUUACGACAC | -3.97 ± 0.43 | -2.41 ± 0.36 |
| CCCCAGCAAUAUUACGAGGA | -2.66 ± 0.13 | -1.53 ± 0.11 |
| CCCCAGCAAUAUUACGAUCC | -3.27 ± 0.27 | -0.776 ± 0.32 |
| CCCCAGCAAUAUUACGAUGA | -3.16 ± 0.16 | -3.01 ± 0.19 |
| CCCCAGCAAUAUUACGAUGC | -3.46 ± 0.16 | -3.15 ± 0.29 |
| CCCCAGCAAUAUUACGCAAA | -3.28 ± 0.14 | -2.44 ± 0.18 |
| CCCCAGCAAUAUUACGCAAC | -3.54 ± 0.14 | -2.48 ± 0.15 |
| CCCCAGCAAUAUUACGCACU | -4.21 ± 0.33 | -2.68 ± 0.22 |
| CCCCAGCAAUAUUACGCGUU | -4.16 ± 0.17 | -2.57 ± 0.19 |
| CCCCAGCAAUAUUACGCUCU | -3.81 ± 0.22 | -2.47 ± 0.26 |
| CCCCAGCAAUAUUACGCUUA | -3.59 ± 0.17 | -2.66 ± 0.17 |
| CCCCAGCAAUAUUACGGACG | -1.67 ± 0.096 | -0.944 ± 0.13 |
| CCCCAGCAAUAUUACGGAGG | -4.83 ± 0.26 | -2.63 ± 0.16 |
| CCCCAGCAAUAUUACGGCAA | -3.17 ± 0.15 | -3.06 ± 0.2 |
| CCCCAGCAAUAUUACGGUGC | -3.88 ± 0.19 | -2.73 ± 0.18 |
| CCCCAGCAAUAUUACGGUUC | -4.25 ± 0.25 | -2.97 ± 0.28 |
| CCCCAGCAAUAUUACGUACG | -3.95 ± 0.26 | -1.89 ± 0.17 |
| CCCCAGCAAUAUUACGUAGU | -3.09 ± 0.078 | -3.07 ± 0.16 |
| CCCCAGCAAUAUUACGUCCC | -2.21 ± 0.36 | – |
| CCCCAGCAAUAUUACGUUCU | -4.2 ± 0.27 | -3.05 ± 0.17 |
| CCCCAGCAAUAUUACGUUUA | -3.99 ± 0.16 | -2.35 ± 0.15 |
| CCCGAGCAAUAUUACGCAAA | -4.05 ± 0.35 | -0.386 ± 0.21 |

| Sequence | self-splicing fitness (ln) (30 °C) | self-splicing fitness (ln) (37 °C) |
| --- | --- | --- |
| CCCGAGCAAUAUUACGCAGG | -1.97 ± 0.2 | -1.36 ± 0.22 |
| CCCGAGCAAUAUUACGCAUU | -3.69 ± 0.33 | -2.22 ± 0.3 |
| CCCGAGCAAUAUUACGCCGC | -3.53 ± 0.43 | -1.59 ± 0.47 |
| CCCGAGCAAUAUUACGCGCU | -3.45 ± 0.25 | -2.91 ± 0.29 |
| CCCGAGCAAUAUUACGCGGC | -3.67 ± 0.4 | -1.88 ± 0.29 |
| CCCGAGCAAUAUUACGCGUG | -3.9 ± 0.2 | -3.2 ± 0.29 |
| CCCGAGCAAUAUUACGGCUA | -3.46 ± 0.29 | -3.2 ± 0.32 |
| CCCGAGCAAUAUUACGGCUC | -4.18 ± 0.34 | -2.21 ± 0.23 |
| CCCGAGCAAUAUUACGGGCA | -3.2 ± 0.23 | -2.66 ± 0.23 |
| CCCGAGCAAUAUUACGGGGG | -3.59 ± 0.16 | -2.89 ± 0.27 |
| CCCGAGCAAUAUUACGGGUC | -4.34 ± 0.28 | -2.12 ± 0.23 |
| CCCGAGCAAUAUUACGGGUU | -3.82 ± 0.16 | -2.89 ± 0.18 |
| CCCGAGCAAUAUUACGUACG | -3.24 ± 0.18 | -2.83 ± 0.24 |
| CCCGAGCAAUAUUACGUAGC | -3.06 ± 0.24 | -2.49 ± 0.33 |
| CCCGAGCAAUAUUACGUAUG | -4.9 ± 0.45 | -2 ± 0.19 |
| CCCGAGCAAUAUUACGUCAA | -3.36 ± 0.2 | -3.09 ± 0.2 |
| CCCGAGCAAUAUUACGUCUU | -3.38 ± 0.18 | -2.16 ± 0.19 |
| CCCGAGCAAUAUUACGUGAA | -3.43 ± 0.37 | -1.87 ± 0.34 |
| CCCGAGCAAUAUUACGUGAU | -4.13 ± 0.28 | -2.22 ± 0.19 |
| CCCGAGCAAUAUUACGUUGA | -4.57 ± 0.32 | -2.78 ± 0.2 |
| CCCGAGCAAUAUUACGUUUU | -4.01 ± 0.33 | -2.01 ± 0.23 |
| CCCUAGCAAUAUUACGAAAG | -3.5 ± 0.26 | – |
| CCCUAGCAAUAUUACGAAUC | -3.92 ± 0.22 | -2.61 ± 0.18 |
| CCCUAGCAAUAUUACGACAC | – | -2.32 ± 0.28 |
| CCCUAGCAAUAUUACGAGCC | -3.5 ± 0.29 | – |

| Sequence | self-splicing fitness (ln) (30 °C) | self-splicing fitness (ln) (37 °C) |
| --- | --- | --- |
| CCCUAGCAAUAUUACGAGGU | -3.87 ± 0.16 | -0.753 ± 0.1 |
| CCCUAGCAAUAUUACGAUUA | -1.88 ± 0.44 | -1.33 ± 0.34 |
| CCCUAGCAAUAUUACGCAGG | -3.06 ± 0.22 | -3.3 ± 0.3 |
| CCCUAGCAAUAUUACGCAGU | -4.87 ± 0.36 | -2.2 ± 0.22 |
| CCCUAGCAAUAUUACGCAUU | -3.74 ± 0.28 | -2.82 ± 0.43 |
| CCCUAGCAAUAUUACGCGAA | -1.83 ± 0.2 | -2.2 ± 0.23 |
| CCCUAGCAAUAUUACGCGCA | -2.49 ± 0.45 | -1.72 ± 0.32 |
| CCCUAGCAAUAUUACGGAGA | -4.85 ± 0.46 | -2.68 ± 0.2 |
| CCCUAGCAAUAUUACGGAUC | -4.33 ± 0.39 | -1.71 ± 0.25 |
| CCCUAGCAAUAUUACGGGGU | -2.49 ± 0.092 | -2.91 ± 0.12 |
| CCCUAGCAAUAUUACGGUCC | -3.45 ± 0.22 | -1.51 ± 0.28 |
| CCCUAGCAAUAUUACGUCGA | -3.58 ± 0.21 | -2.51 ± 0.19 |
| CCCUAGCAAUAUUACGUCUU | -2.95 ± 0.13 | -2.54 ± 0.25 |
| CCCUAGCAAUAUUACGUGAA | -2.8 ± 0.16 | -2.62 ± 0.2 |
| CCCUAGCAAUAUUACGUGGC | -3.35 ± 0.18 | -2.68 ± 0.16 |
| CCCUAGCAAUAUUACGUGUU | -4.27 ± 0.18 | -3.37 ± 0.17 |
| CCCUAGCAAUAUUACGUUAC | -4.52 ± 0.29 | -2.53 ± 0.27 |
| CCCUAGCAAUAUUACGUUAG | -3.73 ± 0.22 | -2.36 ± 0.18 |
| CCCUAGCAAUAUUACGUUGC | -3.75 ± 0.29 | -1.82 ± 0.18 |
| CCGAAGCAAUAUUACGAACU | -3.08 ± 0.29 | -2.17 ± 0.46 |
| CCGAAGCAAUAUUACGAAUU | -3.28 ± 0.4 | -2.87 ± 0.28 |
| CCGAAGCAAUAUUACGACAA | -3.59 ± 0.4 | -2.52 ± 0.29 |
| CCGAAGCAAUAUUACGACUC | -3.36 ± 0.32 | – |
| CCGAAGCAAUAUUACGAGUU | -2.77 ± 0.1 | -2.96 ± 0.17 |
| CCGAAGCAAUAUUACGAUCG | -0.383 ± 0.065 | -0.283 ± 0.076 |

| Sequence | self-splicing fitness (ln) (30 °C) | self-splicing fitness (ln) (37 °C) |
| --- | --- | --- |
| CCGAAGCAAUAUUACGAUGG | -3.47 ± 0.19 | -3.7 ± 0.2 |
| CCGAAGCAAUAUUACGCACC | -2.46 ± 0.19 | -2.25 ± 0.5 |
| CCGAAGCAAUAUUACGCACG | -1.19 ± 0.074 | -0.509 ± 0.092 |
| CCGAAGCAAUAUUACGCGCU | – | -2.26 ± 0.42 |
| CCGAAGCAAUAUUACGCGGC | -3.55 ± 0.28 | -2.27 ± 0.3 |
| CCGAAGCAAUAUUACGCUCC | -2.86 ± 0.44 | – |
| CCGAAGCAAUAUUACGCUUC | -3.15 ± 0.27 | -3.2 ± 0.34 |
| CCGAAGCAAUAUUACGGAGU | -1.88 ± 0.16 | -2.98 ± 0.25 |
| CCGAAGCAAUAUUACGGGAU | -3.69 ± 0.26 | -2.47 ± 0.22 |
| CCGAAGCAAUAUUACGGGCG | -0.886 ± 0.066 | -0.235 ± 0.074 |
| CCGAAGCAAUAUUACGGUAG | -2.87 ± 0.11 | -1.3 ± 0.095 |
| CCGAAGCAAUAUUACGUAAU | -3.37 ± 0.24 | -2.54 ± 0.18 |
| CCGAAGCAAUAUUACGUACA | -3.19 ± 0.43 | -1.75 ± 0.34 |
| CCGAAGCAAUAUUACGUCCG | -0.46 ± 0.11 | -0.429 ± 0.095 |
| CCGAAGCAAUAUUACGUCGU | -1.94 ± 0.074 | -0.687 ± 0.077 |
| CCGCAGCAAUAUUACGCACA | -2.51 ± 0.19 | -1.48 ± 0.17 |
| CCGCAGCAAUAUUACGCAGC | -3.86 ± 0.28 | -1.62 ± 0.19 |
| CCGCAGCAAUAUUACGCGGC | -4.42 ± 0.42 | -2.55 ± 0.29 |
| CCGCAGCAAUAUUACGGAAU | -4.02 ± 0.25 | -2.89 ± 0.34 |
| CCGCAGCAAUAUUACGGGCA | -2.72 ± 0.17 | -2.43 ± 0.18 |
| CCGCAGCAAUAUUACGGGGC | -3.25 ± 0.24 | -2.21 ± 0.28 |
| CCGCAGCAAUAUUACGGGGU | -3.54 ± 0.14 | -2.21 ± 0.13 |
